Measurements as given in patent US6759384.
Non-standard residues stand in square brackets, D forms with d. *: point of attachment. Phe(4-NH2) = Nc1ccc(C[C@H](N)C(=O)O)cc1; 2Nal = N[C@@H](Cc1ccc2ccccc2c1)C(=O)O; Hyp = O=C(O)[C@@H]1C[C@@H](O)CN1; Cha = N[C@@H](CC1CCCCC1)C(=O)O; Chg = N[C@H](C(=O)O)C1CCCCC1; Cbz = O=C(OCc1ccccc1)*

Target: human factor Xa (Enzyme Research Laboratories, Inc.) (human) (UniProt P00742)
Assay: chromogenic FXa inhibition

Sequence of human factor Xa (Enzyme Research Laboratories, Inc.) (human) (P00742 41-179 limits assumed, chain 1 of 2): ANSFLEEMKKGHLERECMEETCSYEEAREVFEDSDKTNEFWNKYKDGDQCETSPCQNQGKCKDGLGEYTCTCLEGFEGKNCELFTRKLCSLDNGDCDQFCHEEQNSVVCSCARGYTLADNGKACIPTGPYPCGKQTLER
Sequence of human factor Xa (Enzyme Research Laboratories, Inc.) (human) (P00742 235-488 limits assumed, chain 2 of 2): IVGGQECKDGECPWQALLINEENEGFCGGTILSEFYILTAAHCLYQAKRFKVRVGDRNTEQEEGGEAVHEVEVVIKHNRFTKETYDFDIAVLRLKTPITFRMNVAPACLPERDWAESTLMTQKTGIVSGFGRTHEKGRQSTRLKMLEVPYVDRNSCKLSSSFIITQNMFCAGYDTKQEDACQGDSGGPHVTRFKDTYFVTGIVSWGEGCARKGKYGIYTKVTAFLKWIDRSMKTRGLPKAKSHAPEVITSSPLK

Row | Substance | Ki [µM]
1 | 5-Bzim-CO-Chg-R-L-P-NH2 (peptide) | < 100
2 | 5-Hic-Chg-R-NH2 (peptide) | < 100
3 | (2-benzofuroyl)-Phe(pNH2)-Chg-Dab(CH═N(CH3)2)-Leu-Pro-NH2 (peptide) | < 100
4 | (2-benzofuroyl)-pAph-Chg-Arg-Pen(CH2COOH)-Pro-NH2 (peptide) | < 100
5 | (2-benzofuroyl)-pAph-Chg-PalMe(3)-Pen(CH2COOH)-Pro-NH2 (peptide) | < 100
6 | (2-furoyl)-pAph-Chg-NH-(4-trimethyl-ammonium benzyl) (peptide) | < 100
7 | (2-pyridoyl)-pAph-Chg-PalMe(3)-NH2 (peptide) | < 100
8 | (2-quinolinoyl)-pAph-Chg-PalMe(3)-NH2 (peptide) | < 100
9 | (3,4-dichlorobenzoyl)-pAph-Chg-NH-(4-trimethyl-ammonium benzyl) (peptide) | < 100
10 | (3-pyridoyl)-Nal(2)-Chg-Arg-Leu-Pro-NH2 (peptide) | < 100
11 | (pOH)C6H4-CH2CH2(OH)-CO-I-R-L-Sar-NH2 (peptide) | < 100
12 | (t-Butoxycarbonyl)-pAph-Chg-NH-(4-trimethyl-ammonium benzyl) (peptide) | < 100
13 | Ac-(3,5,5-Me-3-nHexyl)Y-I-R-NH2 (peptide) | < 100
14 | Ac-(Bzl)Y-I-R-NH2 (peptide) | < 100
15 | Ac-(iBu-Nal(2)-Chg-R-L-P-NH2 (peptide) | < 100
16 | Ac-(nBu)Y-I-R-NH2 (peptide) | < 100
17 | Ac-D-pAph-Chg-Arg-(carboxyethyl)Gly-Pro-NH2 (peptide) | < 100
18 | Ac-D-pAph-Chg-Arg-Leu-Pro-NH2 (peptide) | < 100
19 | Ac-D-pAph-Chg-Arg-N(carboxymethyl)Gly-Pro-NH2 (peptide) | < 100
20 | Ac-D-pAph-Chg-Arg-NH2 (peptide) | < 100
21 | Ac-Nal(2)-Cha-R-D(O-Allyl)-NH2 (peptide) | < 100
22 | Ac-Nal(2)-Chg-R-NH2 (peptide) | < 100

Row | Substance | Ki [µM]
23 | Ac-Pal(4)Me-Chg-Arg-Leu-Pro-NH2 (peptide) | < 100
24 | Ac-Pal(4)Me-Chg-Pal(4)Me-Leu-Pro-NH2 (peptide) | < 100
25 | Ac-Pal(4)Me-Chg-PalMe(3)-Leu-Pro-NH2 (peptide) | < 100
26 | Ac-Pgl(OH)-I-R-L-NH2 (peptide) | < 100
27 | Ac-Y-Chg-R-NH-CH2(2-(1-Et)pyrrolidinyl) (peptide) | < 100
28 | Ac-Y-Chg-R-NH-CH2(2-(6-EtO)benzylthiazolyl) (peptide) | < 100
29 | Ac-Y-Chg-R-NH-CH2CH2-COOH (peptide) | < 100
30 | Ac-Y-Chg-R-NH-CH2CH2-N(CH3)4 (peptide) | < 100
31 | Ac-Y-Chg-R-NH-CH2CH2-O-CH3 (peptide) | < 100
32 | Ac-Y-I-R-L-P-Dab(Ac-Y-I-R-L-P(G-A)3)-OH (peptide) | < 100
33 | Ac-Y-I-R-L-P-Dab(Ac-Y-I-R-L-P(G-A)6)-OH (peptide) | < 100
34 | Ac-Y-I-R-NH2 (peptide) | < 100
35 | Ac-Y-I-R-NH-CH2-4-Pyridyl (peptide) | < 100
36 | Ac-Y-I-R-NH-CH2CH2-N(CH3)2 (peptide) | < 100
37 | Ac-Y-I-R-NH-OCH3 (peptide) | < 100
38 | Ac-Y-I-R-Nle-Hyp (peptide) | < 100
39 | Ac-Y-I-R-Piperidyl (peptide) | < 100
40 | Ac-Y-Nva-R-NH2 (peptide) | < 100
41 | Ac-[2Nal][Cha]RLP-NH2 | < 100
42 | Ac-[Phe(4-NH2)][Chg]RL[Hyp]-NH2 | < 100
43 | Ac-mAph-Chg-Arg-Leu-Pro-NH2 (peptide) | < 100
44 | Ac-pAph-Chg-Arg (peptide) | < 100

Row | Substance | Ki [µM]
45 | Ac-pAph-Chg-Arg-(HOOC-CH2)Gly-Pro-NH2 (peptide) | < 100
46 | Ac-pAph-Chg-Arg-Gla-Pro-NH2 (peptide) | < 100
47 | Ac-pAph-Chg-Dab(CH ═N(CH3)2)-Leu-Pro-NH2 (peptide) | < 100
48 | Ac-pAph-Chg-Dap(CH═N(CH3)2)-Leu-Pro-NH2 (peptide) | < 100
49 | Ac-pAph-Chg-NH-1-[3(N-methylpyridyl)]-1-(methylacetate)ethyl (peptide) | < 100
50 | Ac-pAph-Chg-NH-(4-trimethyl-ammonium benzyl) (peptide) | < 100
51 | Ac-pAph-Chg-NH-[1-(1-methyl-4-pyridinium)-2-hydroxy]ethyl (peptide) | < 100
52 | Ac-pAph-Chg-NH[4-(1-methyl-pyridinium)methyl] (peptide) | < 100
53 | Ac-pAph-Chg-PalMe(3)-Leu-Pro-NH2 (peptide) | < 100
54 | Ac-pAph-Chg-PalMe(3)-NH(1-methoxycarbonyl)-1-cyclohexyl (peptide) | < 100
55 | Ac-pAph-Chg-PalMe(3)-NH-(4-carboxycyclohexyl) methyl (peptide) | < 100
56 | Ac-pAph-Chg-PalMe(3)-Pen(CH2COOH)-Pro-NH2 (peptide) | < 100
57 | Ac-pAph-Chg-R-L-P-NH2 (peptide) | < 100
58 | Ac-pAph-Pgl-PalMe(3)-NH2 (peptide) | < 100
59 | Ac-y-I-R-NH2 (peptide) | < 100
60 | Alloc-pAph-Chg-PalMe(3)-NH2 (peptide) | < 100
61 | Alloc-pAph-Chg-PalMe(3)-Pen(CH2COOH)-Pro-NH2 (peptide) | < 100
62 | Cbz-Ile-Arg-Leu-NH2 | < 100
63 | Nal(2)-Cha-R-D(O-Allyl)-NH2 (peptide) | < 100
64 | Nal(2)-Chg-R-L-P-NH2 (peptide) | < 100

Other lines, results leading:

Row | Ki [µM] | Substance
65 | < 100 | 3-phenoxyproprionic-Y-Chg-R-NH2 (peptide)
66 | < 100 | (2-benzofuroyl)-Tyr-Chg-Arg-Pen-Pro-NH2 (peptide)
67 | < 100 | (2-benzofuroyl)-pAph-Chg-PalMe(3)-NH2 (peptide)
68 | < 100 | (2-fluorobenzoyl)-pAph-Chg-NH-(4-trimethyl-ammonium benzyl) (peptide)
69 | < 100 | (2-furoyl)-pAph-Chg-NH-1-[3(N-methylpyridyl)]-1-(methylacetate)ethyl (peptide)
70 | < 100 | (2-thienylacetyl)-pAph-Chg-NH-(4-trimethyl-ammonium benzyl) (peptide)
71 | < 100 | (5-pyrazinoyl)Nal(2)-Chg-Arg-Leu-Pro-NH2 (peptide)
72 | < 100 | (Alloc)-pAph-Chg-Arg-Leu-Pro-NH2 (peptide)
73 | < 100 | (Ethoxycarbonyl)-pAph-Chg-NH-(4-trimethyl-ammonium benzyl) (peptide)
74 | < 100 | (N-(5-methyl-2-thienoyl)-pAph-Chg-NH-(4-trimethyl-ammonium benzyl) (peptide)
75 | < 100 | (iBu)Y-I-R-OH (peptide)
76 | < 100 | Ac-(4-MeO-Bzl)Y-I-R-NH2 (peptide)
77 | < 100 | Ac-(4-pyridil-CH2-)Y-I-R-NH2 (peptide)
78 | < 100 | Ac-(Bzl)G-(Chx)Gly-(3-GuanidoPropyl)G-NH2 (peptide)
79 | < 100 | Ac-(iBu)F(pNH2)-Chg-R-NH2 (peptide)
80 | < 100 | Ac-(iBu)Y-Chg-R-NH2 (peptide)
81 | < 100 | Ac-(iBu)Y-I-R-NH2 (peptide)
82 | < 100 | Ac-D-pAph-Chg-Arg-Cys-(CH2-COOH)-Pro-NH2 (peptide)
83 | < 100 | Ac-D-pAph-Chg-Arg-Gla-Pro-NH2 (peptide)
84 | < 100 | Ac-D-pAph-Chg-Arg-N[1(1,3-dicarboxy)propyl)]Gly-Pro-NH2 (peptide)
85 | < 100 | Ac-D-pAph-Chg-PalMe(3)-Leu-Pro-NH2 (peptide)
86 | < 100 | Ac-F(pNH2)-Chg-R-NH2 (peptide)
87 | < 100 | Ac-Y-Chg-R(NO2)-{ψ(CH2NH)}-L-NH2 (peptide)
88 | < 100 | Ac-Y-Chg-R-NH-Bzl-4-OMe (peptide)
89 | < 100 | Ac-Y-Chg-R-NH-CH2-Chx (peptide)
90 | < 100 | Ac-Y-Chg-R-NH-CH2CH2-N-(CH3)2 (peptide)

Row | Ki [µM] | Substance
91 | < 100 | Ac-Y-Chg-R-NH-Chx (peptide)
92 | < 100 | Ac-Y-I-PalMe(3)-NH2 (peptide)
93 | < 100 | Ac-Y-I-R-N(Me)O-CH3 (peptide)
94 | < 100 | Ac-Y-I-R-NH-4-morpholinyl (peptide)
95 | < 100 | Ac-pAph-Cha-PalMe(3)-(Me)Leu-Pro-NH2 (peptide)
96 | < 100 | Ac-pAph-Chg-Arg(HOOC-CH2-CH2)Gly-Pro-NH2 (peptide)
97 | < 100 | Ac-pAph-Chg-Arg-Cys(CH2COOH)-Pro-NH2 (peptide)
98 | < 100 | Ac-pAph-Chg-Arg-Leu-NH2 (peptide)
99 | < 100 | Ac-pAph-Chg-Arg-Leu-OH (peptide)
100 | < 100 | Ac-pAph-Chg-Arg-NH2 (peptide)
101 | < 100 | Ac-pAph-Chg-Arg-N[1(1,3-dicarboxy)propyl)]Gly-Pro-NH2 (peptide)
102 | < 100 | Ac-pAph-Chg-Arg-Pen(CH2COOH)-Pro-NH2 (peptide)
103 | < 100 | Ac-pAph-Chg-NH-(4-amidinobenzyl) (peptide)
104 | < 100 | Ac-pAph-Chg-NH-[1-(1-methyl-4-pyridinium)ethyl (peptide)
105 | < 100 | Ac-pAph-Chg-Pal(3)(CH2COOH)-NH2 (peptide)
106 | < 100 | Ac-pAph-Chg-PalMe(3)-NH2 (peptide)
107 | < 100 | Ac-pAph-Chg-PalMe(3)-NH-(1-methoxycarbonyl)-1-cyclopentyl (peptide)
108 | < 100 | Ac-pAph-Chg-PalMe(3)-NH-(3-thienyl-2-carboxylic acid methyl ester) (peptide)
109 | < 100 | Ac-pAph-Chg-PalMe(3)-NH-(4-methoxycarbonyl-cyclohexyl)methyl (peptide)
110 | < 100 | Alloc-D-pAph-Chg-Arg-Leu-Pro-NH2 (peptide)
111 | < 100 | Alloc-pAph-Chg-NH-[4-(-methylpyridinium)-methyl] (peptide)
112 | < 100 | CF3C(O)-(iBu)Tyr-Chg-Arg-OH (peptide)
113 | < 100 | Caff-I-R-NH2 (peptide)
114 | < 100 | Cbz-I-R-NH2 (peptide)
115 | < 100 | ClCH2CO-Y-I-R-NH2 (peptide)
116 | < 100 | Nal(2)-Cha-R-D(O-Allyl)-Sar-NH2 (peptide)
